# According to publication PMC3649970, “A Unique Spumavirus Gag N-terminal Domain with Functional Properties of Orthoretroviral Matrix and Capsid” (PLoS Pathogens, 2013):
# B1: PFV-Gag-NtD (amino terminal domain of Prototypic Foamy Virus Gag, residues 1-179) [Prototypic foamy virus (PFV)] / PFV Env leader peptide residues 1-20 [Prototypic foamy virus (PFV)] (parent)
# chain 1: MASGSNVEEYELDVEALVVILRDRNIPRNPLHGEVIGLRLTEGWWGQIERFQMVRLILQDDDNEPLQRPRYEVIQRAVNPHTMFMISGPLAELQLAFQDLDLPEGPLRFGPLANGHYVQGDPYSSSYRPVTMAETAQMTRDELEDVLNTQSEIEIQMINLLELYEVETRALRRQLAERS
# chain 2: MAPPMTLQQWIIWKKMNKAH
# Variants of: B1
# Experiment: sedimentation velocity analytical ultracentrifugation
# Conditions: with PFV Env leader peptide residues 1-20 [Prototypic foamy virus (PFV)]; 75 µM equimolar mixtures of Gag-NtDs with Env(1-20); read off a plot
row,Variant,Ka
1,chain 1 V18S L21S,0.16 10^5 M^-1
2,chain 1 N29Q,1.4 10^5 M^-1
3,chain 1 V14S V18S,0.18 10^5 M^-1
4,chain 1 V18S,0.6 10^5 M^-1
5,chain 1 L21S,0.29 10^5 M^-1
6,chain 1 L21N,0.3 10^5 M^-1
7,chain 1 V14S,0.51 10^5 M^-1
8,chain 1 V14S L21S,0.07 10^5 M^-1
9,chain 1 L17S,0.71 10^5 M^-1
